First the molecules themselves.
B1: 02A01-IgG-IL12 (LC) (other, not shown: a dimerising Fc or GST)
heavy: EVQLQQSGPELVKPGASLKISCKASGYTFTDFTMHWVKQSHGKSLEWIGLVNPNNGGNIYNQNFKGKATLTVDTSSSTAYMELRSLTSEDSSVYYCGRVPLYTSHGMDYWGQGTSVTVSS
light: DIVLTQSPAFLAVSLGQRATISCRASESVDSYDINSMHWYQQKPGQPPKLLIYRASHLQSGIPARFSGSGSRTDFTLTINFVEADDVATYYCQQSNEDPLTFGAGTKLELK
B2: 03A01-IgG-IL12 (LC) (other, not shown: a dimerising Fc or GST)
heavy: DVQFQESGPGLVKPSQSLSLTCTVTGYSITSDFAWNWIRQFPGNELEWMGYISYSGDTNYNPSLRSRISITRDTSKNQFFLQLDSVTTEDTATYYCTIRGYYTDSAFVFWGQGTLVTVSA
light: DIQMTQSSSYLSVSLGGRVTITCKASDHINNWLAWYQQKPGNAPRLLISGATSLETGVPSRFTGSGSGLDYTLSITSLQTEDVATYYCQQYWNSPFTFGSGTKLEIK
B3: humanized 03A01-VH1-VK1 (antibody, V domains shown)
VH: EVQFQESGPGLVKPSQTLSLTCTVTGYSITSDFAWNWIRQPPGKELEWMGYISYSGDTNYNPSLRSRITISRDTSKNQFSLKLSSVTAADTATYYCTIRGYYTDSAFVFWGQGTLVTVSS
VL: DIQMTQSSSTLSVSLGDRVTITCKASDHINNWLAWYQQKPGKAPRLLISGATSLETGVPSRFSGSGSGLEYTLTISSLQPDDFATYYCQQYWNSPFTFGQGTKLEIK
B4: humanized 03A01-VH4-VK2 (antibody, V domains shown)
VH: EVQFQESGPGLVKPSQTLSLTCTVSGYSITSDFAWNWIRQPPGKGLEWIGYISYSGDTYYNPSLKSRVTISRDTSKNQFSLKLSSVTAADTAVYYCTIRGYYTDSAFVFWGQGTLVTVSS
VL: DIQMTQSPSTLSVSVGDRVTITCKASDHINNWLAWYQQKPGKAPKLLISGATSLETGVPSRFSGSGSGLEYTLTISSLQPDDFATYYCQQYWNSPFTFGQGTKLEIK
B5: humanized 03A01-VH4-VK3 (antibody, V domains shown)
VH: EVQFQESGPGLVKPSQTLSLTCTVSGYSITSDFAWNWIRQPPGKGLEWIGYISYSGDTYYNPSLKSRVTISRDTSKNQFSLKLSSVTAADTAVYYCTIRGYYTDSAFVFWGQGTLVTVSS
VL: DIQMTQSPSTLSASVGDRVTITCKASDHINNWLAWYQQKPGKAPKLLISGATSLETGVPSRFSGSGSGLEYTLTISSLQPDDFATYYCQQYWNSPFTFGQGTKLEIK
B6: humanized 03A01-VH4-VK1 (antibody, V domains shown)
VH: EVQFQESGPGLVKPSQTLSLTCTVSGYSITSDFAWNWIRQPPGKGLEWIGYISYSGDTYYNPSLKSRVTISRDTSKNQFSLKLSSVTAADTAVYYCTIRGYYTDSAFVFWGQGTLVTVSS
VL: DIQMTQSSSTLSVSLGDRVTITCKASDHINNWLAWYQQKPGKAPRLLISGATSLETGVPSRFSGSGSGLEYTLTISSLQPDDFATYYCQQYWNSPFTFGQGTKLEIK
B7: humanized 03A01-VH2-VK1 (antibody, V domains shown)
VH: EVQFQESGPGLVKPSQTLSLTCTVSGYSITSDFAWNWIRQPPGKGLEWMGYISYSGDTNYNPSLRSRITISRDTSKNQFSLKLSSVTAADTAVYYCTIRGYYTDSAFVFWGQGTLVTVSS
VL: DIQMTQSSSTLSVSLGDRVTITCKASDHINNWLAWYQQKPGKAPRLLISGATSLETGVPSRFSGSGSGLEYTLTISSLQPDDFATYYCQQYWNSPFTFGQGTKLEIK
B8: 03-Parent-VH-D64E (antibody, V domains shown)
VH: DVQFQESGPGLVKPSQSLSLTCTVTGYSITSDFAWNWIRQFPGNELEWMGYISYSGETNYNPSLRSRISITRDTSKNQFFLQLDSVTTEDTATYYCTIRGYYTDSAFVFWGQGTLVTVSA
VL: DIQMTQSSSYLSVSLGGRVTITCKASDHINNWLAWYQQKPGNAPRLLISGATSLETGVPSRFTGSGSGLDYTLSITSLQTEDVATYYCQQYWNSPFTFGSGTKLEIK
notes: also called 03A01 VH-D64E
B9: 02-Parent-VH-M39L (antibody, V domains shown)
VH: EVQLQQSGPELVKPGASLKISCKASGYTFTDFTLHWVKQSHGKSLEWIGLVNPNNGGNIYNQNFKGKATLTVDTSSSTAYMELRSLTSEDSSVYYCGRVPLYTSHGMDYWGQGTSVTVSS
VL: DIVLTQSPAFLAVSLGQRATISCRASESVDSYDINSMHWYQQKPGQPPKLLIYRASHLQSGIPARFSGSGSRTDFTLTINFVEADDVATYYCQQSNEDPLTFGAGTKLELK
notes: also called murine 02A01 VH-M39L
B10: humanized 02A01-VH2-VK2 (antibody, V domains shown)
VH: EVQLVQSGAEVKKPGATLKISCKASGYTFTDFTMHWVQQAPGKGLEWIGLVNPNNGGNIYNQNFKGRATLTVDTSTSTAYMELSSLRSEDTSVYYCGRVPLYTSHGMDYWGQGTLVTVSS
VL: EIVLTQSPATLSVSPGERATISCRASESVDSYDINSMHWYQQKPGQAPRLLIYRASHLQSGIPARFSGSGSRTDFTLTISSVEPEDFATYYCQQSNEDPLTFGQGTKLEIK
B11: humanized 02A01-VH1-VK2 (antibody, V domains shown)
VH: EVQLVQSGPEVVKPGATLKISCKASGYTFTDFTMHWVKQAPGKSLEWIGLVNPNNGGNIYNQNFKGRATLTVDTSTSTAYMELSSLRSEDTSVYYCGRVPLYTSHGMDYWGQGTLVTVSS
VL: EIVLTQSPATLSVSPGERATISCRASESVDSYDINSMHWYQQKPGQAPRLLIYRASHLQSGIPARFSGSGSRTDFTLTISSVEPEDFATYYCQQSNEDPLTFGQGTKLEIK
B12: humanized 02A01-VH2-VK1 (antibody, V domains shown)
VH: EVQLVQSGAEVKKPGATLKISCKASGYTFTDFTMHWVQQAPGKGLEWIGLVNPNNGGNIYNQNFKGRATLTVDTSTSTAYMELSSLRSEDTSVYYCGRVPLYTSHGMDYWGQGTLVTVSS
VL: EIVLTQSPATLSVSPGERATISCRASESVDSYDINSMHWYQQKPGQPPRLLIYRASHLQSGIPARFSGSGSRTDFTLTISSVEPEDFATYYCQQSNEDPLTFGQGTKLEIK
B13: humanized 02A01-VH1-VK1 (antibody, V domains shown)
VH: EVQLVQSGPEVVKPGATLKISCKASGYTFTDFTMHWVKQAPGKSLEWIGLVNPNNGGNIYNQNFKGRATLTVDTSTSTAYMELSSLRSEDTSVYYCGRVPLYTSHGMDYWGQGTLVTVSS
VL: EIVLTQSPATLSVSPGERATISCRASESVDSYDINSMHWYQQKPGQPPRLLIYRASHLQSGIPARFSGSGSRTDFTLTISSVEPEDFATYYCQQSNEDPLTFGQGTKLEIK
B14: humanized 02A01-VH3-VK2 (antibody, V domains shown)
VH: EVQLVQSGAEVKKPGATLKISCKASGYTFTDFTMHWVQQAPGKGLEWIGLVNPNNGGNIYAEKFQGRATLTVDTSTSTAYMELSSLRSEDTSVYYCGRVPLYTSHGMDYWGQGTLVTVSS
VL: EIVLTQSPATLSVSPGERATISCRASESVDSYDINSMHWYQQKPGQAPRLLIYRASHLQSGIPARFSGSGSRTDFTLTISSVEPEDFATYYCQQSNEDPLTFGQGTKLEIK
B15: humanized 02A01-VH1-VK3 (antibody, V domains shown)
VH: EVQLVQSGPEVVKPGATLKISCKASGYTFTDFTMHWVKQAPGKSLEWIGLVNPNNGGNIYNQNFKGRATLTVDTSTSTAYMELSSLRSEDTSVYYCGRVPLYTSHGMDYWGQGTLVTVSS
VL: EIVLTQSPATLSLSPGERATISCRASESVDSYDINSMHWYQQKPGQAPRLLIYRASHLQSGIPARFSGSGSRTDFTLTISSLEPEDFATYYCQQSNEDPLTFGQGTKLEIK
B16: humanized 02A01-VH3-VK1 (antibody, V domains shown)
VH: EVQLVQSGAEVKKPGATLKISCKASGYTFTDFTMHWVQQAPGKGLEWIGLVNPNNGGNIYAEKFQGRATLTVDTSTSTAYMELSSLRSEDTSVYYCGRVPLYTSHGMDYWGQGTLVTVSS
VL: EIVLTQSPATLSVSPGERATISCRASESVDSYDINSMHWYQQKPGQPPRLLIYRASHLQSGIPARFSGSGSRTDFTLTISSVEPEDFATYYCQQSNEDPLTFGQGTKLEIK

For one test, the target named is T1, human CD8 on human T cells (human, UniProt P01732 22-235; P10966 22-210). The experiment in a line: cell-based or functional assay.
T1 sequence (P01732 22-235, chain 1 of 2): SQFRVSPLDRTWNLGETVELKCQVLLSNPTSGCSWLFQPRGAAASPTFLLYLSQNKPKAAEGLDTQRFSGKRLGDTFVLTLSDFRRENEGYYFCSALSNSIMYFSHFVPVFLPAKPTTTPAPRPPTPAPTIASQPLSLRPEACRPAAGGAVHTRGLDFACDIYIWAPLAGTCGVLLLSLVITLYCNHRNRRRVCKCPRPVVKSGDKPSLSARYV
T1 sequence (P10966 22-210, chain 2 of 2): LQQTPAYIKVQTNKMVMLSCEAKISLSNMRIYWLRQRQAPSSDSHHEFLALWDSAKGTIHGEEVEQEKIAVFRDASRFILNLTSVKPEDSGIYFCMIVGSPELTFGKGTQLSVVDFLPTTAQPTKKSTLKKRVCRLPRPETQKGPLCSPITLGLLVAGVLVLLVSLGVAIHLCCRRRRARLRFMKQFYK
For B1, the “EC50 for stimulation of pSTAT4 signaling, CD8+ T cells in pre-activated human PBMCs” value came out at 2.72 pM.
Same read-out and setting: under B2 stands 14.7 pM.

Another test has as its target T1, human CD8 on human T cells. Briefly: flow cytometry, 5 nM antibody on human CD8+ T cells, anti-human IgG detection (MFI AF647). As to the method: The 16 above-referenced humanized 03A01-derived anti-CD8 antibodies were screened for their ability to bind human CD8 by evaluating binding to CD8⁺ T cells. The non-humanized parent (“03-Parent”) and the non-humanized parent comprising a heavy chain D64E liability mutation (“03-Parent-VH-D64E”) were used as controls. […] Cells were washed with 1 X phosphate buffered saline (PBS) containing 1 mg/mL bovine serum albumin (PBS/BSA) and then stained with a 1:100 dilution of DyLight650-conjugated anti-human IgG H+L polyclonal antibody (ThermoFisher cat. no. Sa5-10129) in PBS/BSA. Following a 20-30 min incubation at 4° C., the cells were washed once with PBS/BSA, and then resuspended in PBS/BSA for analysis on a FACSCelesta using Diva software (BD Biosciences). The resulting data were analyzed using FlowJo. Data were quantified and reported as Max fluorescence intensity (MFI) of human IgG-Fc. […] Complete replacement of the LCDR1 (antibodies comprising VK4) eliminated binding to the CD8+ T cells.
(In flow cytometry, cells or beads pass a laser one at a time.)
Regarding B3, the binding result is “binds”.
On the same count and under the same terms, under B4 stands “binds”.
The same measure, in the same setting: under B5 stands “binds”; under B6, “binds”; under B7, “binds”.
Still for that read-out and setting: for B8 the value was “binds”.

For a further test, the target named is T1, human CD8 on human T cells. The experiment in a line: flow cytometry, 0.2 nM antibody on human CD8+ T cells, anti-human IgG detection (MFI AF647). As to the method:
The 24 humanized 02A01-derived anti-CD8 antibodies (excluding 02A01-VK3(D30E/N35Q)) were screened for their ability to bind human CD8 by evaluating binding to CD8+ T cells. The non-humanized parent (“02-Parent”) and the non-humanized parent comprising a heavy chain M39L liability mutation (“02-Parent-VH-M39L”) were used as controls. […] Cells were washed with 1×phosphate buffered saline (PBS) containing 1 mg/mL bovine serum albumin (PBS/BSA) and then stained with a 1:100 dilution of DyLight650-conjugated anti-human IgG H+L polyclonal antibody (ThermoFisher cat. no. Sa5-10129) in PBS/BSA. Following a 20-30 min incubation at 4° C., the cells were washed once with PBS/BSA, and then resuspended in PBS/BSA for analysis on a FACSCelesta using Diva software (BD Biosciences). The resulting data were analyzed using FlowJo. Data were quantified and reported as Max fluorescence intensity (MFI) of human IgG-Fc. […] Complete replacement of the HCDR1 (antibodies comprising VH5) eliminated binding to the CD8+ T cells.
B9: the binding result is recorded as “binds”.
The same measure, in the same setting: for B10 the value was “binds”.
Still for that read-out and setting: for B11 the value was “binds”; for B12, “binds”; for B13, “binds”.
Still for that read-out and setting: for B14 the value was “binds”.
Turning to B15, the binding result is recorded as “binds”.
Same read-out and setting: under B16 stands “binds”.

For the origin of these results see US20250101107A1 (REPERTOIRE IMMUNE MEDICINES, published 2025).
